Tested on: MS2 coat protein
Assay: apparent KD of MS2 coat protein; designed switch direction (-1 OFF switch, 1 ON switch): 1; higher = weaker reporter binding
In short: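 Apparent KD, taken as the median over clusters for each design, was obtained by curve-fitting normalised cluster fluorescence. Designed RNA switches had been transcribed on Illumina chips by stalled E. coli RNA polymerase and titrated with SNAP-549-labelled MS2 coat protein, doubling from 0.7 or 1.5 nM to 3 µM.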

[1] = Eterna round: R95, input ligand: FMN 200 uM
[2] = Eterna round: R95, input ligand: microRNA oligo, concentration not stated
[3] = Eterna round: R95, input ligand: none
[4] = input ligand: microRNA oligo, concentration not stated

Sequence | apparent KD of MS2 coat protein [1] | apparent KD of MS2 coat protein [2] | apparent KD of MS2 coat protein [3] | apparent KD of MS2 coat protein (input ligand: FMN 200 uM) | apparent KD of MS2 coat protein [4] | apparent KD of MS2 coat protein (input ligand: none)
UAGAAACAUGAGGAUCACCCAUGUGGGUUAAACACAGGAUAUCACACCAAACGAAAGGCGUGAGAAGGGUGACCGU [Xeonreais] (puzzle: Same State 1) | 62 nM | 41.2 nM | 39.1 nM | – | – | –
ACAGAGUGAAGACAGGAUAUUCGCGAUGGCACAUGAGGAUCACCCAUGUUUUGAGCACAUAAACAGAAGAAGGGUUAAAACUCAG [Zadier] (Eterna round: R96, puzzle: Same State 2) | – | – | – | 13.6 nM | 74.1 nM | 104 nM
CGCAGGCACGUAGGAUAUCUAGCGUGGGAGGCUAGAGAAGGAUGGAAUAACAUGAGGAUCACCCAUGUCGCCUCGCGGAAAUAA [Diorverire] (Eterna round: R96, puzzle: Same State NG 1) | – | – | – | 15.5 nM | 17.4 nM | 32.8 nM
GUACUCAUGUAAGGAUAUGCAGCCGUUUCGGCUGCAGAAGGUACUAUAAUACAUGAGGAUCACCCAUGUCUCUAUAAUUUGGUG [salish99_SSNG1_r04_902] (Eterna round: R96, puzzle: Same State NG 1) | – | – | – | 177 nM | 62.4 nM | 132 nM
AUUGUUAAUGCAGGAUAUGAUUAACAUGAGGAUCACCCAUGUGGUGUUGUGAGUAAGGAGAGUGAUCAGAAGGGCAUUUUUUUU [JMF's solution 31] (Eterna round: R96, puzzle: Same State NG 2) | – | – | – | 826 nM | 810 nM | 616 nM
GGUCCGGCCUGAGCUGGACCGAAGCAUGUACAUGAGGAUCACCCAUGUCAUGUACAGGCUUUUUGCUCGUCUUGUUG [JL-shm-2.14 JL Mod] (puzzle: Sensor for hsa-mir-208a) | 691 nM | 17.2 nM | 746 nM | – | – | –
CCAAUGUACAAUUUAGAUCUACAUGAGGAUCACCCAUGUACAGAGGAUAUCAGCUCGUUUAGAGCUGAGAAGGCUGAAUUAAUU [SSNG3/3-A3] (Eterna round: R96, puzzle: Same State NG 3) | – | – | – | 111 nM | 139 nM | 327 nM
AUAAUACAUGAGGAUCACCCAUGUAAUUUAACUUGUAAGAUCAAGGAUAUCAGCUCGAAUAGAGCUGAGAAGGUGAUCACAUGU [SSNG3/20-A1] (Eterna round: R96, puzzle: Same State NG 3) | – | – | – | – | 70.7 nM | –
GGCUAUCGGCGUACCGAUAGCUGGUAUGUACAUGAGGAUCACCCAUGUCAUGUACAGGCUUUUUGCUCGUCUUAUUG [JL-shm-2.39 JL mod] (puzzle: Sensor for hsa-mir-208a) | 134 nM | 30.3 nM | 149 nM | – | – | –
GCGAACUGUGUAGGAUAUUGAGCACUUUUGGAGCAAGAAGGACACCAAGUGCUGACUAUACAUGAGGAUCACCCAUGUUCAGCA [Eternabot solution 22] (Eterna round: R96, puzzle: Same State NG 1) | – | – | – | – | 21.4 nM | –
GCUACCAUUGAAGCCAACAUGAGGAUCACCCAUGUAUGUUGGCAGGAUAUCGAUUGCAAAGCGAUCGAGAAGGGCUAAGGUAGC [Mat - Same State NG 3 - JL Mod - D86] (Eterna round: R96, puzzle: Same State NG 3) | – | – | – | 92.2 nM | 62.8 nM | 117 nM
ACCCGCGGGCCACAUGAGGAUCACCCAUGUGACCGGUGAUCCAAGGAUAUACGUGUGAUAGACGCGUAGAAGGUGGCCAAAACU [Rirazaedat] (Eterna round: R96, puzzle: Same State NG 3) | – | – | – | 127 nM | 29.3 nM | 31.9 nM
CACCAGAGAGCAGGAUAUGGGCCACGGCCUAAGGGCUGUGAACUCACAUGAGGAUCACCCAUGUCCCAGAAGGGCUCCUGGCUA [Getiised] (Eterna round: R96, puzzle: Same State NG 2) | – | – | – | 98.3 nM | 602 nM | 842 nM
GGAGGACAUGAGGAUCACCCAUGUGGAUGAACGCUAGGAUAUGCGUGCAGGAAGAGUGGAGCAGAAGGAGUGGGUU [JR_SS1_Sub046] (puzzle: Same State 1) | – | 21.7 nM | – | – | – | –
GCGAGCGUACUUGCAGACAUGAGGAUCACCCAUGUAACUGGACAGGAUAUGGUACCGUUUCGGUACCAGAAGGGUUCAUAUGUC [JL SSNG3 3.53] (Eterna round: R96, puzzle: Same State NG 3) | – | – | – | 67.6 nM | 50.8 nM | 79.4 nM
GAGAGAGGAAGCGAGGAUAUCGUGUUGGGUACAUGAGGAUCACCCAUGUUGUAGGUAGAGGUAGGCGAGAAGGCGCAGGAGAGGU [JR_SS2_Sub096] (puzzle: Same State 2) | 105 nM | 67 nM | 195 nM | – | – | –

Sequence | apparent KD of MS2 coat protein [1] | apparent KD of MS2 coat protein [2] | apparent KD of MS2 coat protein [3] | apparent KD of MS2 coat protein (input ligand: FMN 200 uM) | apparent KD of MS2 coat protein [4] | apparent KD of MS2 coat protein (input ligand: none)
GGUCGGAACCACAUGAGGAUCACCCAUGUUCCGGAAACGGCACAGGAUAUCUGUCCGAAAAGGUCAGAGAAGGGUGAACCGACC [Fiskers NG3ss - 76] (Eterna round: R96, puzzle: Same State NG 3) | – | – | – | 285 nM | 247 nM | 445 nM
AUAGUUUCCGAAGGAUAUGAUGAGGAUCACCCAUCAGAAGGUUGGCUAUUGGGCUGACAUGAGGAUCACCCAUGUUCCGGUGUU (Eterna round: R96, puzzle: Same State NG 1) | – | – | – | 33.7 nM | 31.9 nM | 43.3 nM
ACAGAGUGAAGACAGGAUAUUCGCGAUGGCACAUGAGGAUCACCCAUGUUUUGAGCACAUAAACAGAAGAAGGGUUAAAACUCAG [Zadier] (puzzle: Same State 2) | 15 nM | 119 nM | 362 nM | – | – | –
UGUUGUAUUACAGGAUAUCUAUGAUUUUUAUUAAGAGAAGGGUAUUCACAUGAGGAUCACCCAUGUAUAUACGAGGAAGUUGUG [JMF's solution 70] (Eterna round: R96, puzzle: Same State NG 1) | – | – | – | – | 25.6 nM | –
GAGUAGUUGGAAGGAUAUCGAUUGUUAUAGAAUCGAGAAGGUCCUAACAUGAGGAUCACCCAUGUAGGACUAUUCCUGUGUAUC [Parity 76 - Jieux - Same State NG 1] (Eterna round: R96, puzzle: Same State NG 1) | – | – | – | – | 8.12 nM | –
GCUCGAUGUGCUGUUUACAUGAGGAUCACCCAUGUAGAUGCGGAGGAUAUCUACGUGCUUUAUGUAGAGAAGGCCGUAUCGAGC [SameState NG3 #82] (Eterna round: R96, puzzle: Same State NG 3) | – | – | – | 15 nM | 25.4 nM | 35.1 nM
AUCCUACAUGAGGAUCACCCAUGUGACGCCUCAAUAGGAUAUGCGUGUGCCUUGGCGCAUGCAGAAGGAUUGAAGC [JL Aveso mod 1] (puzzle: Same State 1) | – | 295 nM | – | – | – | –
GUGAAGAAUUAAGGAUAUCGAGUCAAGAUGUUAAACAUGAGGAUCACCCAUGUGGGUUGCGGUAUCGAGAAGGUAAAUUACGGG [salish99_SSNG2_r04_503] (Eterna round: R96, puzzle: Same State NG 2) | – | – | – | 34.6 nM | 27.6 nM | 33.2 nM
UUAAUUUACUGAGGAUAUCGUGUCGACUGAGGUGACAUGAGGAUCACCCAUGUGAGAAGUGGUAUCGAGAAGGCAGUAUUCAUA [JR_SSNG2_Sub022] (Eterna round: R96, puzzle: Same State NG 2) | – | – | – | 92.6 nM | 306 nM | 506 nM
AAACACAUGAGGAUCACCCAUGUAGCACCAUUGAGGCGCACAUAGGAUAUCCGGUCCAAAAGACCGGAGAAGGGUGAAAGAAAA [Veandi] (Eterna round: R96, puzzle: Same State NG 3) | – | – | – | 59.7 nM | 371 nM | 328 nM
AGGCUCAGAGCAGGAUAUAUGUCUCGAGCUUCGGCUCGAGACAUGAGGAUCACCCAUGUAAUAACAUAGAAGGGCUCUGAGCCA [SSNG2/1-B1] (Eterna round: R96, puzzle: Same State NG 2) | – | – | – | 11.2 nM | 45.8 nM | 63.4 nM
UCAAGCGCACAUGAGGAUCACCCAUGUACCGAGAGUCGUCGUCGGAGAAUGAUGCAUGCUGCUGCUAUUCCACAUUA [Default title] (puzzle: Sensor for hsa-mir-208a version 2) | 89.5 nM | 66.8 nM | 85.3 nM | – | – | –
UUAAUAAAGUAAGGAUAUACAUGAGGAUCACUCGUAGAAGGUACUAUACAUGAGGAUCACCCAUGUUCCGGUCAGAAGACUGGA [Mat - Same State NG 1 - JL mod - D4] (Eterna round: R96, puzzle: Same State NG 1) | – | – | – | – | 440 nM | –
AGGGAGGAAGCUGAGGAUAUCGUAGGGAGGACAUGAGGAUCACCCAUGUGUAUAGAAUUGGAGGACGAGAAGGCAGAGGAGUGGG [JR_SS2_Sub051] (puzzle: Same State 2) | 56.6 nM | 58.5 nM | 58.2 nM | – | – | –
GAAAAGACAUGAGGAUCACCCAUGUGAAAGCCUAAGGGCCCACAGGAUAUACAGUGAAAAGCACUGUAGAAGGGUGAUAAAGAC [Ordibidi] (Eterna round: R96, puzzle: Same State NG 3) | – | – | – | 228 nM | 271 nM | 172 nM
UACUGAGUCGUAGGAUAUGUAGGAUAUGGCGAGAGCUAAGCUUGGAAGUCACUUCUGCCAGAAGGACAGAAGGACGACUCUCUC [pwkr ssNG2 2FMN + F9.14] (Eterna round: R96, puzzle: Same State NG 2) | – | – | – | 705 nM | 237 nM | 55.5 nM

Source: the supplement of paper PMC9170038
